Patent US7531661B2, “Indane compounds as CCR5 antagonists” (SmithKline Beecham Corporation, priority 2002, dated 2009)

Target: T1, human CCR5 chemokine receptor (Homo sapiens, UniProt P51681)
T1 construct: host or cells: Chinese Hamster Ovary (CHO) cells; membranes prepared from the cell pellet
Experiment: CC-Chemokine Receptor-5 Binding by Scintillation Proximity Assay (CCR5 SPA), displacement of 125I-MIP1α
Details: standards plate, 14-point concentration-response curve in triplicate, starting concentration 1 μM
Procedure: CC-Chemokine Receptor-5 Binding by Scintillation Proximity Assay (CCR5 SPA)
Scintillation Proximity Assay for the Human CC-Chemokine Receptor, CCR-5
This protocol describes a high-throughput screen using SPA binding to identify compounds that inhibit binding of ^125I-MIP1α to the human CCR5 chemokine receptor.
Human CCR5 receptors were expressed in Chinese Hamster Ovary (CHO) cells, registration # 12025. Cells were grown in suspension and a 50 to 80 ml CCR5 cell pellet was prepared. […]
The saturation curve binding experiment is performed by adding varying amounts of [^125I]MIP1α (0-8.5 nM to membranes and beads in concentrations chosen from the optimal protein/bead ratio. The data is analyzed using a non-linear curve-fitting program. The Kd and Bmax are derived from the curve. […]

T1 sequence (P51681 whole entry): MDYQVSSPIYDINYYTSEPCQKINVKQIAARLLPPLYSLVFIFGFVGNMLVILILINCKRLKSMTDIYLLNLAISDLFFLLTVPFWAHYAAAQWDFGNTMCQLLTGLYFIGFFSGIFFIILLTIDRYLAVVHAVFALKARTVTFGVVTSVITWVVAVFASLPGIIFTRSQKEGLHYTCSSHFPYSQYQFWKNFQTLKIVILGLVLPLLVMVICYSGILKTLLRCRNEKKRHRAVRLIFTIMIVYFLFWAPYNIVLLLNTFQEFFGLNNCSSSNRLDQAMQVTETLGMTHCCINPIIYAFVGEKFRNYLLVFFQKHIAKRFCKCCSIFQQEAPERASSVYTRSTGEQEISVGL

average historical pKi obtained with MIP1α: 7.6
Substance: MIP1α: standard compound of the CCR5 SPA; natural chemokine ligand of CCR5
